In patent US20140241987A1:

B1: Syn-F1 (antibody)
chain 1: DVQLVESGGDLVQPGGSRKLSCAASGFTFSSFGMHWVRQAPEKGLEWVAYINSGSSTIYYADTVKGRFTISRDNPKNTLFLQMTSLRSEDTAMYYCARGNNPGTGYYYSMDYWGQGTSVTVSS
chain 2: not shown
B2: Syn-F2 (antibody)
chain 1: DVQLVESGGGLVQPGGSRKLSCAASGFTFSSFGMHWVRQAPEKGLEWVAYISSGSSTIYYADTVKGRFTISRDNPKNTLFLQMTSLRSEDTAMYYCARGNNPGTGYYYAMDYWGQGTSVTVSS
chain 2: not shown

Legend:
[1] = molecular target: α-synuclein fibrils (human), P37840; assay: SPR, BIAcore X100, fibrils immobilised on CM5, mAb injected; conditions: remark: other sources report otherwise
[2] = molecular target: α-synuclein fibrils (human), P37840; assay: inhibition ELISA, fibrils against monomers; conditions: remark: other sources report otherwise

Binder | Kd [1] | koff [1] | kon [1] | Fold Affinity to Fibrils [2]
B1 | 0.127 nM | 0.00156 s⁻¹ | 1.23e+07 M⁻¹ s⁻¹ | 16600 fold
B2 | 2.69 nM | 0.00338 s⁻¹ | 1.26e+06 M⁻¹ s⁻¹ | 3140 fold
